From article PMC3185003
pKd: −log10 of the molar value.

Key:
[1] = biological target: ABD_(TNF2) displayed on staphylococcal cells; assay: flow cytometry on cells; S. carnosus cells displaying ABD-variants incubated 1 h at RT in PBSP pH 7.4 with twelve concentrations of biotinylated TNF-α (4.3-12900 nM; streptavidin-Alexa Fluor 488) or HSA-Alexa 488 (1.25-2500 nM; 10-20000 nM for ABD_(TNF1)); MFI fitted to a 1:1 model; apparent KD for TNF-α (monomer concentration)
[2] = biological target: ABD_(TNF1) displayed on staphylococcal cells; assay: as above
ABD_(T002) = assay: SPR; ProteOn XPR36; ABD-molecules immobilized by amine coupling on GLM or GLC chips (about 800-1500 RU); HSA (7-1200 nM) or TNF-α (1-100 nM) injected, 50 µl/min, 25°C, PBS with 0.1% Tween 20; at least triplicates, two chips, two days; apparent KD for TNF-α (monomer concentration)
ABD_(T001) = assay: as above
ABD_(HT016) = assay: as above
ABD_(HT015) = assay: as above
ABD_(T004) = assay: as above
[3] = biological target: non-randomized ABD displayed on staphylococcal cells (not stated (streptococcal)); assay: flow cytometry on cells; S. carnosus cells displaying ABD-variants incubated 1 h at RT in PBSP pH 7.4 with twelve concentrations of biotinylated TNF-α (4.3-12900 nM; streptavidin-Alexa Fluor 488) or HSA-Alexa 488 (1.25-2500 nM; 10-20000 nM for ABD_(TNF1)); MFI fitted to a 1:1 model; apparent KD for TNF-α (monomer concentration)
[4] = biological target: human serum albumin (human) (UniProt P02768); assay: SPR; BIAcore 2000; HSA immobilized (2000 RU); ABD-variants injected in duplicates at about 1-3000 nM (up to 250 nM for ABD); 25°C, HBS-EP

Sequence of biotinylated TNF-α (P01375 77-233): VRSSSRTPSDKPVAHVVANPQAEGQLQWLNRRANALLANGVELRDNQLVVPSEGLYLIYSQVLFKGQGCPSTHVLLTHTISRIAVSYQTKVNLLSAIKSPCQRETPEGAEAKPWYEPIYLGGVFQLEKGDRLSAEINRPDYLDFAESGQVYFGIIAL

Row | Substance | pKd [1] | pKd (ABD_(T002)) | pKd (ABD_(T001)) | pKd (ABD_(HT016)) | also measured
1 | human serum albumin (from UniProt P02768 25-609) (natural protein) |  | 6.19 | 6.72 | 7.17 | pKd (ABD_(HT015)): 7.46; pKd (ABD_(T004)): 6.68
2 | tumor necrosis factor-α (from UniProt P01375 77-233) (ligand) |  | 8.54 | 8.28 | 8.35 | 
3 | non-randomized ABD (alkali-stabilized albumin-binding domain from streptococcal protein G) (domain or fragment) |  |  |  |  | pKd [4]: 8.28; koff [4]: 0.0009 s⁻¹; kon [4]: 170000 M⁻¹ s⁻¹

The next lines start with results.

Row | pKd [1] | pKd (ABD_(T002)) | pKd (ABD_(T001)) | pKd (ABD_(HT016)) | Substance | also measured
4 | 6.23 |  |  |  | biotinylated TNF-α (from UniProt P01375 77-233) (ligand) | pKd [2]: 6.57
5 | 7.64 |  |  |  | HSA conjugated to Alexa Fluor 488 (from UniProt P02768 25-609) (natural protein) | pKd [3]: 7.72
